# Measured values taken from patent publication US20130230533A1 (Regeneron, published 2013).
# T1: human CD48 (on primary human peripheral blood mononuclear cells) (human, UniProt P09326 27-220)
# T1 sequence: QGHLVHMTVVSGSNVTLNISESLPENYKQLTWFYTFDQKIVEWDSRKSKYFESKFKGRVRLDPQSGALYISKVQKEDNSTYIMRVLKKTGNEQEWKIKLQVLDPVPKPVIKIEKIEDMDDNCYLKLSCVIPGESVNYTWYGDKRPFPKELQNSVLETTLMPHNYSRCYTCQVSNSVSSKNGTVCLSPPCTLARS
# T2: monomeric monkey CD48 expressed with a tag consisting of 2 myc and one 6-His epitopes (monkey)
# T2 construct: also called mfCD48-mmH; Monomeric monkey CD48-mmH
# T2 chain: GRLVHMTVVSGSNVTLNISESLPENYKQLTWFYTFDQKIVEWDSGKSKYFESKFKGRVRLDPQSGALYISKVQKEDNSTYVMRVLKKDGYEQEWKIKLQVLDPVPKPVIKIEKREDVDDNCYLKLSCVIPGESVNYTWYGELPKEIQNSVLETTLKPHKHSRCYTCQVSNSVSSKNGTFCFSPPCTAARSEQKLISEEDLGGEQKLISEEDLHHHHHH
# T3: biotinylated dimeric human CD48 protein expressed as a fusion with mouse IgG2a Fc (human, biotinylated)
# T3 construct: also called bio-hCD48-mFc; Dimeric human CD48-mFc
# T3 chain: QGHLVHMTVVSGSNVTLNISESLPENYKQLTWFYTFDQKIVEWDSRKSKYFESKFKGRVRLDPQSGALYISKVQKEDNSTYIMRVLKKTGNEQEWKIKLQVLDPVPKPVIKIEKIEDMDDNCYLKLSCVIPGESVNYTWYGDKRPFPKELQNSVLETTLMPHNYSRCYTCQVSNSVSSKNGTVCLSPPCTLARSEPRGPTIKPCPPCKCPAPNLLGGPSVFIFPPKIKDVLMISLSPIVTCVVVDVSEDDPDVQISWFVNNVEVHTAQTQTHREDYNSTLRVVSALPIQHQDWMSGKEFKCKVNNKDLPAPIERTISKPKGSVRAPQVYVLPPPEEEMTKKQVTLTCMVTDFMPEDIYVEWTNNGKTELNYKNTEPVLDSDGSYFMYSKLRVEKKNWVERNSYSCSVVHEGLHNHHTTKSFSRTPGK
# B1: H2M1713N (antibody, mouse IgG2, V domains shown)
# VH: QVQLVQSGAEVKKPGASVKVSCKASGHTFTNYYIHWVRQAPGQGLEWMGITNPNDGNTRYAQKFQGRISMTWDTSTSTVFMELSSLKSEDTAVYYCAGLRYWFFDLWGRGTPVTVSS
# VL: DIQMTQSPSSVSASVGDRVTITCRASQDISSWLAWYQQKPGKAPNLLIFAASSLQSGVPSRFSGSGSGTDFTLTISSLQPEDFGTYYCQQTDNFPRTFGQGTKVEIN
# notes: Human variable domains, mouse IgG2 Fc (H2M)
# B2: H2M1763N (antibody, mouse IgG2, V domains shown)
# VH: QIQLVQSGAEMKRPGTSVKVSCKASGYTFTSYGINWVRQAPGQGLEWMGWISAYNGDTNYAQKLQGRVTMTTDTSTTTAYMEVRSLRSDDTAVYYCARFLTGTKDYYYGMDVWGQGTTVTVSS
# VL: DIQMTQSPSSLSASVGDRVTITCQASQDISNFLNWYQQKPGKAPDLLINDASILETGVPSRFSGSGSGTDFTLTINNLQPEDIATYYCQQYDNLPLTFGGGTKVEIK
# notes: as for B1
# B3: H2M1710N (antibody, mouse IgG2, V domains shown)
# VH: QVQLVQSGADMKKPGASVRVSCKASGYTFTDYFIHWVRQAPGQGPEWMGWINPDSGATNYAQQFQGRVTMTRDTSISATYMEMSRLRSDDTAVFYCARDKDGSGWYLDDWGQGTLVTVSS
# VL: EIVLTQSPATLSLSPGERATLSCRASQSVNIYLAWYQQKPGQAPRLLIYDASNRASGIPARFSGSGSGTDFTLTISSLEPEDFAVYYCQQRSNWPPSITFGQGTRLEIK
# notes: as for B1
# B4: H2M1764N (antibody, mouse IgG2, V domains shown)
# VH: QVQLVESGGGVVQPGRSLRLSCAASGFTFSDYGMHWVRQAPGKGLEWVAVIWNDGSNKNYADSVKGRFSISSDSSKNTLYLHMNSLRAEDTAVYYCARSLYSTSPWYFDLWGRGTLVTVSS
# VL: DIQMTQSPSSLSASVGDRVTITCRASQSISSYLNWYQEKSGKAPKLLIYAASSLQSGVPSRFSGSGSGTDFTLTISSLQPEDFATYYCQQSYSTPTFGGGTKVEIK
# notes: as for B1
# Target: T1, human CD48 (on primary human peripheral …)
# Test: cell-based or functional assay
Inhibition of IFN-gamma Release IC50; Donor 1 [Molar],Inhibition of IFN-gamma Release IC50; Donor 2 [Molar],Inhibition of IFN-gamma Release IC50; Donor 4 [Molar],Inhibition of IFN-gamma Release IC50; Donor 5 [Molar],Inhibition of IFN-gamma Release IC50; Donor 3 [Molar],Binder
2.1e-11,7.6e-11,1.1e-10,1.1e-11,–,B1
4.9e-11,3.4e-11,7.5e-11,1.9e-11,1.3e-10,B2
7.8e-10,1.9e-10,1.5e-09,2.7e-10,1.1e-06,B3
2.7e-11,1.1e-10,9.5e-11,1.9e-11,1.9e-10,B4

# Target: T1, human CD48 (on primary human peripheral …)
# Test: cell-based or functional assay
# Remark: another data set of the same source
Inhibition of IFN-gamma Release IC50; Donor 6 [Molar],Inhibition of IFN-gamma Release IC50; Donor 7 [Molar],Binder
2.2e-11,1e-10,B1
2.6e-11,1.8e-11,B2
5e-11,1.4e-10,B3
1e-10,–,B4

# Target: T2, monomeric monkey CD48 expressed with a …
# Test: competition ELISA; blocks mfCD48-mmH binding to coated h2B4-hFc
# Experimental: (§1) The ability of human anti-CD48 monoclonal antibodies to block human CD48 and monkey CD48 binding to the human cognate ligand, human 2B4, was measured using a competition sandwich ELISA (Table 8). Constant amounts of biotinylated dimeric human CD48 protein expressed as a fusion with mouse IgG2a Fc (“bio-hCD48-mFc” [SEQ ID NO: 387]) or monomeric monkey CD48 expressed with a tag consisting of 2 myc and one 6-His epitopes (“mfCD48-mmH” [SEQ ID NO: 386]) were separately titrated with varying amounts of antibodies. These antibody-protein complexes were incubated (1 hr, 25° C.) before being transferred to microtiter plates coated with a dimeric construct expressing the human 2B4 receptor fused to a either human IgG1 (h2B4-hFc [R&D Systems, Inc., Minneapolis, Minn., Cat. No. 1039-2B]) or mouse IgG2a Fc (h2B4-mFc [SEQ ID NO: 389). After a 1 hr at 25° C. the wells were washed and bound human CD48 was detected with streptavidin conjugated with horse-radish peroxidase (HRP), and monkey CD48 was detected with an HRP conjugated anti-myc polyclonal antibody. The ELISA was developed with a TMB solution to produce a colorimetric reaction and quenched with sulfuric acid before reading absorbance at 450 nm on a Victor X5 plate reader. Sigmoidal dose response curves were fit to the data using Prism™ software. […] (Tables 8 and 9, NB=no binding observed)
row,IC50 [nM],Binder
1,0.024,B1
2,0.013,B2
3,0.37,B3
4,0.24,B4

# Target: T2, monomeric monkey CD48 expressed with a …
# Test: competition ELISA; blocks mfCD48-mmH binding to coated h2B4-mFc
# Experimental: as §1
row,IC50 [nM],Binder
1,0.0025,B1
2,0.0023,B2
3,0.26,B3
4,0.062,B4

# Target: T3, biotinylated dimeric human CD48 protein …
# Test: competition ELISA; blocks bio-hCD48-mFc binding to coated h2B4-hFc
# Experimental: as §1
row,IC50 [nM],Binder
1,0.026,B1
2,0.0088,B2
3,0.58,B3
4,0.064,B4

# Target: T3, biotinylated dimeric human CD48 protein …
# Test: competition ELISA; blocks bio-hCD48-mFc binding to coated h2B4-mFc
# Experimental: as §1
row,IC50 [nM],Binder
1,0.022,B1
2,0.0055,B2
3,0.49,B3
4,0.029,B4
